Measured values: the Immune Epitope Database (IEDB)
Each block holds one sequence with its values, some of them ahead of it.

What was measured:
HLA-A*24:02 = assay: IEDB peptide-MHC binding, purified MHC/competitive/radioactivity; filed as Kd, often an IC50 or EC50 that approximates it; ≥ and ≤ were set here for values at or beyond the usual limits of such assays
HLA-A*23:01 = assay: as above
HLA-A*29:02 = assay: as above
HLA-A*02:06 = assay: as above
HLA-A*01:01 = assay: as above
HLA-A*26:01 = assay: as above
HLA-A*30:02 = assay: as above
HLA-B*44:03 = assay: as above
HLA-B*44:02 = assay: as above
HLA-B*58:01 = assay: IEDB peptide-MHC binding, purified MHC/direct/fluorescence; filed as Kd, often an IC50 or EC50 that approximates it; ≥ and ≤ were set here for values at or beyond the usual limits of such assays; conditions: source organism: Mycobacterium tuberculosis variant bovis
HLA-A*02:02 = assay: IEDB peptide-MHC binding, purified MHC/competitive/radioactivity; filed as Kd, often an IC50 or EC50 that approximates it; ≥ and ≤ were set here for values at or beyond the usual limits of such assays
HLA-A*02:03 = assay: as above
HLA-A*11:01 [1] = assay: IEDB peptide-MHC binding, purified MHC/direct/fluorescence; filed as Kd, often an IC50 or EC50 that approximates it; ≥ and ≤ were set here for values at or beyond the usual limits of such assays; conditions: source organism: Homo sapiens
HLA-B*07:02 = assay: as above; conditions: source organism: Human immunodeficiency virus 1
HLA-A*11:01 [2] = assay: IEDB peptide-MHC binding, purified MHC/competitive/radioactivity; filed as Kd, often an IC50 or EC50 that approximates it; ≥ and ≤ were set here for values at or beyond the usual limits of such assays; conditions: source organism: Vaccinia virus WR
HLA-A*31:01 = assay: as above; conditions: source organism: Vaccinia virus WR
HLA-A*68:01 = assay: as above; conditions: source organism: Vaccinia virus WR
HLA-A*33:01 = assay: as above; conditions: source organism: Vaccinia virus WR
HLA-A*03:01 = assay: as above; conditions: source organism: Vaccinia virus WR
[3] = source organism: Mammarenavirus guanaritoense
[4] = source organism: Dengue virus 2 Jamaica/1409/1983
[5] = source organism: Dengue virus 3 Martinique/1243/1999
[6] = source organism: Lassa virus Josiah
[7] = source organism: Dengue virus 4 Philippines/H241/1956
[8] = source organism: Dengue virus 3 Sri Lanka/1266/2000
[9] = source organism: Dengue virus 4 Dominica/814669/1981
[10] = source organism: Vaccinia virus WR
[11] = source organism: SARS coronavirus Tor2
[12] = source organism: Dengue virus 1 Nauru/West Pac/1974

Sequence: SFKVGHHTNF
Kd (HLA-A*24:02; [3]): 11 µM
Kd (HLA-A*23:01; [3]): 1.32 µM
Kd (HLA-A*29:02; [3]): 0.814 µM

Sequence: ITLTAALLLL
Kd (HLA-A*02:06; [4]): 0.0274 µM
Kd (HLA-A*01:01; [4]): 5.94 µM

Sequence: VTTWENVPYL
Kd (HLA-A*01:01; [5]): 11.3 µM

Sequence: MVTLYLGVM
Kd (HLA-A*26:01; source organism: Dengue virus 1 Brazil/97-11/1997): 0.163 µM

Sequence: HYLCLNCLT
Kd (HLA-A*01:01; [6]): 6.91 µM
Kd (HLA-A*26:01; [6]): ≥ 77.9 µM
Kd (HLA-A*30:02; [6]): 3.02 µM

Sequence: DTSEVHWNY
Kd (HLA-A*01:01; [7]): 0.111 µM
Kd (HLA-A*26:01; [7]): 0.0416 µM
Kd (HLA-A*30:02; [7]): 3.86 µM

Sequence: NTIFTLTVAW
Kd (HLA-A*26:01; [8]): 8.78 µM
Kd (HLA-B*44:03; [8]): ≥ 23.1 µM
Kd (HLA-B*44:02; [8]): 7.26 µM

Sequence: NEEKITQQM
Kd (HLA-B*44:02; [5]): 0.578 µM

Sequence: CGRGGWSYY
Kd (HLA-A*30:02; [5]): 0.253 µM

Sequence: ENPYRTWAYH
Kd (HLA-A*26:01; [7]): ≥ 69.7 µM

Sequence: IYGAAFSGV
Kd (HLA-A*24:02; [4]): 0.398 µM

Sequence: TTEAILPEY
Kd (HLA-A*01:01; [5]): 0.0306 µM
Kd (HLA-A*26:01; [5]): 1.18 µM
Kd (HLA-A*30:02; [5]): ≥ 54.3 µM

Sequence: MSPGYVLGVF
Kd (HLA-A*24:02; [9]): 1.48 µM
Kd (HLA-A*23:01; [9]): 1 µM
Kd (HLA-A*26:01; [9]): 1.6 µM

Sequence: NYADRRWCF
Kd (HLA-A*24:02; [4]): 0.0122 µM
Kd (HLA-A*23:01; [4]): 0.0506 µM

Sequence: FTDPSSVAA
Kd (HLA-A*02:06; [7]): 0.0594 µM
Kd (HLA-A*01:01; [7]): 0.00171 µM

Sequence: KEVALLRTYC
Kd (HLA-B*44:03; [7]): 0.128 µM

Sequence: RDTAEAAKW
Kd (HLA-B*58:01): 1.59 µM

Sequence: VTGSYNLVDT
Kd (HLA-A*02:06; [10]): ≥ 69.8 µM
Kd (HLA-A*02:02; [10]): ≥ 70 µM
Kd (HLA-A*02:03; [10]): ≥ 70.4 µM

Kd (HLA-A*11:01 [1]): 17.5 µM
Sequence: ERPAFGIQK

Sequence: LTGTFVTAFI
Kd (HLA-A*02:06; [10]): 0.413 µM
Kd (HLA-A*02:02; [10]): 0.672 µM
Kd (HLA-A*02:03; [10]): 0.596 µM

Sequence: YVILKDPRIA
Kd (HLA-A*02:06; [10]): 1.9 µM
Kd (HLA-A*02:02; [10]): 6.01 µM
Kd (HLA-A*02:03; [10]): 0.355 µM

Sequence: FLVLIMLII
Kd (HLA-A*02:06; [11]): 1.35 µM
Kd (HLA-A*02:02; [11]): 1.63 µM
Kd (HLA-A*02:03; [11]): 9.73 µM

Sequence: DLAIKQYGDI
Kd (HLA-A*02:06; [10]): ≥ 46.5 µM
Kd (HLA-A*02:02; [10]): 17.9 µM
Kd (HLA-A*02:03; [10]): ≥ 33.3 µM

Sequence: ITDQTVNICI
Kd (HLA-A*02:06; [10]): 10.4 µM
Kd (HLA-A*02:02; [10]): ≥ 70 µM
Kd (HLA-A*02:03; [10]): ≥ 70.4 µM

Sequence: AEITPQAST
Kd (HLA-B*44:02; [5]): 0.0165 µM

Sequence: HAFLCLFLL
Kd (HLA-A*02:06; [11]): 0.00122 µM
Kd (HLA-A*02:02; [11]): 0.0207 µM
Kd (HLA-A*02:03; [11]): 0.0465 µM

Sequence: TIESAKTKI
Kd (HLA-A*02:06; [10]): ≥ 51.1 µM
Kd (HLA-A*02:02; [10]): 16.3 µM
Kd (HLA-A*02:03; [10]): ≥ 54.1 µM

Sequence: LVQIENLEY
Kd (HLA-A*01:01; [7]): 0.0904 µM
Kd (HLA-A*30:02; [7]): 1.11 µM

Sequence: SIDHCSSFIV
Kd (HLA-A*02:06; [10]): 0.0303 µM
Kd (HLA-A*02:02; [10]): 0.172 µM
Kd (HLA-A*02:03; [10]): 0.772 µM

Sequence: ESEMIIPKNF
Kd (HLA-A*01:01; [4]): ≥ 70.4 µM
Kd (HLA-A*26:01; [4]): ≥ 69.7 µM

Sequence: IGKMFESTY
Kd (HLA-A*30:02; [9]): 0.338 µM

Sequence: AEIQPQWIAA
Kd (HLA-B*44:03; [7]): 1.12 µM
Kd (HLA-B*44:02; [7]): 0.0672 µM

Sequence: EAEPPFGESY
Kd (HLA-A*01:01; [12]): 1.36 µM
Kd (HLA-A*26:01; [12]): 0.669 µM

Sequence: FTELENKKV
Kd (HLA-A*02:06; [10]): 6.84 µM
Kd (HLA-A*02:02; [10]): 19.6 µM
Kd (HLA-A*02:03; [10]): 8.08 µM

Sequence: LTLTAAVLLL
Kd (HLA-A*01:01; [5]): 13.9 µM

Sequence: IPLTEEAEL
Kd (HLA-B*07:02): 5.31 µM

Sequence: AIILASFSA
Kd (HLA-A*02:06; [11]): 0.0816 µM
Kd (HLA-A*02:02; [11]): 0.201 µM
Kd (HLA-A*02:03; [11]): 0.176 µM

Sequence: YLYTEYFLFL
Kd (HLA-A*02:06; [10]): 0.000841 µM
Kd (HLA-A*02:02; [10]): 0.000684 µM
Kd (HLA-A*02:03; [10]): 0.00132 µM

Sequence: YLMCLSPLM
Kd (HLA-A*02:06; [11]): 0.00112 µM
Kd (HLA-A*02:02; [11]): 0.000137 µM
Kd (HLA-A*02:03; [11]): 0.000297 µM

Sequence: DISDVKVLAA
Kd (HLA-A*02:06; [10]): 4.61 µM
Kd (HLA-A*02:02; [10]): ≥ 33.8 µM
Kd (HLA-A*02:03; [10]): 2.2 µM

Sequence: IQYRQQLEL
Kd (HLA-A*02:06; [10]): 0.0413 µM
Kd (HLA-A*02:02; [10]): 0.511 µM
Kd (HLA-A*02:03; [10]): 0.0449 µM

Sequence: IAGGVCYYL
Kd (HLA-A*02:06; [10]): 1.41 µM
Kd (HLA-A*02:02; [10]): 0.0531 µM
Kd (HLA-A*02:03; [10]): 1.68 µM

Sequence: FSCGLSLQDY
Kd (HLA-A*11:01 [2]): 0.269 µM
Kd (HLA-A*31:01): 2.31 µM
Kd (HLA-A*68:01): 0.263 µM
Kd (HLA-A*33:01): 9.25 µM
Kd (HLA-A*29:02; [10]): ≥ 71.4 µM
Kd (HLA-A*03:01): 0.977 µM
